Test results published in PMC3294036.
Where “and” joins values, the source holds several entries; their conditions need not be identical. Equal values may be shown once. Each block holds one substance with its values, some of them ahead of it.

Tests used:
Test in all cases: FRET or BRET
[1] = target: ATTO425-AKAP79(333–408), wildtype (PIAIIIT) (human) (UniProt P24588)
[2] = target: ATTO425-AKAP79(333–408) I338P variant (PPAIIIT) (human) (UniProt P24588)
[3] = target: AKAP79-CFP, wildtype, full-length (human) (UniProt P24588)
Chain of AKAP79-CFP, wildtype, full-length (human) (P24588 whole entry): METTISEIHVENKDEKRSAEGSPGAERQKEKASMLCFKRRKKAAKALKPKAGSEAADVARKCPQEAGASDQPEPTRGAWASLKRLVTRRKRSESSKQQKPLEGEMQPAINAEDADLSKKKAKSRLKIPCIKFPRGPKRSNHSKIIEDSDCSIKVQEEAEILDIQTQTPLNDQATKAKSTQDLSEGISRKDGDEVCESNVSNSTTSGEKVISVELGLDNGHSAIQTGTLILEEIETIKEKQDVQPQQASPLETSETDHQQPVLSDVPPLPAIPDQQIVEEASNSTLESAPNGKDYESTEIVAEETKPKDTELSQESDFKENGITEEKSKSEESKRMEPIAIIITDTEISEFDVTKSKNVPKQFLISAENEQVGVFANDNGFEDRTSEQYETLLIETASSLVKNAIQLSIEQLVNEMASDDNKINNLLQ

[4] = target: AKAP79-CFP I338P variant (PPAIIIT), full-length (human) (UniProt P24588)
Chain of AKAP79-CFP I338P variant (PPAIIIT), full-length (human) (P24588 whole entry I338P): as the sequence (P24588 whole entry) above, with I338P counted along it

Chain of ATTO425-AKAP79(333–408), wildtype (PIAIIIT) (human) (P24588 333-408): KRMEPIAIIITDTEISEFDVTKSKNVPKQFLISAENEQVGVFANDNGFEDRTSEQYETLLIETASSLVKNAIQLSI
Chain of ATTO425-AKAP79(333–408) I338P variant (PPAIIIT) (human) (P24588 333-408 I338P): as the sequence (P24588 333-408) above, with I6P counted along it

- Kd [1]: 400 nM and 300 nM
- koff [1]: 9.96 s⁻¹
- half-time of dissociation [2]: 163 ms
Substance: rhodamine-CN (calcineurin labelled with tetramethylrhodamine acceptor) (from UniProt Q08209;P63098) (complex)

- corrected YFP/CFP fluorescence intensity ratio (treated as 2:1 complex) [3]: 6.1
- stoichiometry N [3]: 1
Substance: CNAα-YFP (from UniProt Q08209 1-521) (enzyme; other documents disagree on this pair)

- corrected YFP/CFP fluorescence intensity ratio (treated as 1:1 complex) [4]: 8.1
- corrected YFP/CFP fluorescence intensity ratio (treated as 2:1 complex) [4]: 7.1
Substance: CNAα-YFP (from UniProt Q08209 1-521) (enzyme)
